Measurements reported in patent publication US8840886B2, “Method of treating cancer with DLL4 antagonist and chemotherapeutic agent” (Regeneron Pharmaceuticals, Inc., priority 2009, dated 2014).

Legend:
[1] = test system: human A549 tumor cells (non-small cell lung cancer); assay: A549 NSCLC xenograft tumor growth, REGN421 with cisplatin (Example 2); assay type: in vivo, mouse; settings: REGN421 2 mg/kg sc (6 mg/kg total dose)
Method: The effect of REGN421 in combination with cisplatin on tumor growth was evaluated on tumors implanted in humanized Dll4 SCID mice, as described above. Each mouse was implanted subcutaneously (sc) with 5×10^6 human A549 tumor cells (non-small cell lung cancer or “NSCLC”). After the tumors were established in the mice (tumor size of 100-150 mm^3, approximately 29 days after implantation), tumors were measured, randomized and treated with hFc, REGN421, cisplatin or combination of REGN421 and cisplatin. A total of 36 mice were divided into 6 groups (n=6 per cohort). The first group was treated sc with hFc at 2 mg/kg; the second group was treated sc with REGN421 at 2 mg/kg; the third and fourth groups were treated ip with cisplatin at 2.5 and 4.5 mg/kg, respectively; the fifth group was treated sc with REGN421 at 2 mg/kg and ip with cisplatin at 2.5 mg/kg; and the sixth group was treated sc with REGN421 at 2 mg/kg and ip with cisplatin at 4.5 mg/kg. REGN421 was administered every 3-4 days starting on day 29 and mice received three doses total. Cisplatin was administered every 24 hours starting on day 29 and mice received two doses total.
To assess the effects of REGN421 and cisplatin as single agents or in combination we measured tumor size (volume), beginning three days before the initial REGN421 treatment, on the day of each agent treatment (days 29, 30, 33, 36) and thereafter every 3-4 days until tumors reached ˜600 mm^3 in size. In vivo tumor size was calculated using the formula (length×width^2)/2.

[2] = test system: human HCT116 tumor cells; assay: HCT116 xenograft tumor growth, REGN421 with irinotecan (Example 6); assay type: in vivo, mouse; settings: REGN421 2 mg/kg sc (6 mg/kg total dose)
Method: Each mouse was implanted subcutaneously (sc) with 5×10^6 human HCT116 tumor cells. After the tumors were established in the mice (tumor size of ˜150 mm^3, 15 days after implantation), tumors were measured and randomized. The mice were then treated with hFc, REGN421, irinotecan or combination of REGN421 and irinotecan. A total of 30 mice were divided into 6 groups (n=5 per cohort). The first group was treated sc with hFc at 2 mg/kg; the second group was treated sc with REGN421 at 2 mg/kg; the third and fourth groups were treated ip with irinotecan at 7.5 and 25 mg/kg, respectively; the fifth group was treated sc with REGN421 at 2 mg/kg and ip with irinotecan at 7.5 mg/kg; and the sixth group was treated sc with REGN421 at 2 mg/kg and ip with irinotecan at 25 mg/kg. REGN421 was administered every 3-4 days starting on day 15 and mice received three doses total. Irinotecan was administered every 3-4 days starting on day 15 and mice received three doses total.
(§1) To assess the effects of REGN421 and irinotecan as single agents or in combination treatments, the changes in tumor size (volume) are measured, starting three days before the initial REGN421 treatment, and then on the day of each agent treatment (days 15, 19, 22) and thereafter every 3-4 days until tumors reach ˜600 mm^3 in size. In vivo tumor size is calculated using the formula (length×width^2)/2.

[3] = Phase I pharmacokinetics of REGN421, single 30-min IV infusion, ELISA (Example 8); assay type: in vivo, human; settings: mean
Method: REGN421 is currently being studied in a first-in-human trial. The primary objective of the study is to determine the recommended dose of REGN421 for future efficacy trials. The secondary objectives are to characterize the drug safety profile, its pharmacokinetics, immunogenicity, and pharmacodynamics, as well as preliminary evidence of efficacy. In this study, anti-hDll4 antibody REGN 421 is administered intravenously every 3 weeks to patients whose cancer has progressed on conventional therapy. The study design follows standard methodology for dose escalation and definition of dose-limiting toxicity. To date, 7 patients have been treated at 0.25 mg/kg/dose every three weeks, and 6 patients have been treated at 0.50 mg/kg/dose every three weeks. For the pharmacokinetic study, blood samples were taken at pre-dose, 0 hour, and post-dose 1, 2, 4 and 8 hours on Day 1, followed by Days 2, 3, 4, 8 and 15 of Cycle 1; and pre-dose, 0 hour on Day 1 of Cycles≧2, and post-treatment follow-up on Days 15, 30 and 60. Plasma/serum levels of REGN421 in the samples are measured by ELISA with an upper limit of quantification of 2.5 μg/mL and a lower limit of quantification of 0.039 μg/mL in the undiluted serum sample. The study is ongoing with the intent to administer higher doses, defined in the protocol as 1, 2, 4, and 7 mg/kg/dose.
The currently available data showing plasma pharmacokinetic parameters following single 30-min. Cmax: Maximum serum concentration of the drug; Tlast: Time to the last quantifiable concentration of the drug; Clast: Last quantifiable concentration of the drug; AUClast: Area under curve up to the last concentration of the drug; AUC: Total area under the curve (i.e., drug exposure); t1/2Z: Terminal half life; Vss: Volume of distribution at steady state; CL: Drug clearance rate. Values are: mean, (CV %), and [range] (a: median [range]).

[4] = test system: human HCT116 tumor cells (CRC); assay: HCT116 colorectal xenograft tumor growth, REGN421 with 5-FU (Example 5); assay type: in vivo, mouse; settings: REGN421 2 mg/kg sc (6 mg/kg total dose)
Method: The effect of anti-Dll4 Ab (REGN421) in combination with 5-FU on tumor growth was evaluated on tumors implanted in humanized Dll4 SCID mice. Each mouse was implanted subcutaneously (sc) with 5×10^6 human HCT116 tumor cells (CRC). After the tumors were established in the mice (tumor size of ˜150 mm^3, 22 days after implantation), tumors were measured and randomized. The mice were then treated with hFc, REGN421, 5-FU or combination of REGN421 and 5-FU. A total of 30 mice were divided into 6 groups (n=5 per cohort). The first group was treated sc with hFc at 2 mg/kg; the second group was treated sc with REGN421 at 2 mg/kg; the third and fourth groups were treated ip with 5-FU at 15 and 25 mg/kg, respectively; the fifth group was treated sc with REGN421 at 2 mg/kg and ip with 5-FU at 15 mg/kg; and the sixth group was treated sc with REGN421 at 2 mg/kg and ip with 5-FU at 25 mg/kg. REGN421 was administered every 3-4 days starting on day 22 and mice received three doses total. 5-FU was administered every 3-4 days starting on day 22 and mice received three doses total.
as §1, with “5-FU” for “irinotecan”, “combination,” for “combination treatments,”, “were” for “are”, “beginning” for “starting”, “22, 26, 29)” for “15, 19, 22)”, “(length×width^2)/2 (FIG. 3 and Table 5).” for “(length×width^2)/2.”

B1: REGN421: anti-hDll4 antibody comprising HCVR/LCVR combination of SEQ ID NO:116/118 (antibody, V domains shown)
VH: QVQLVESGGGVVQPGRSLRLSCAASGFTFSSYGMHWVRQAPGKGLEWVSFLWYDGTNKNYVESVKGRFTISRDNSKNMLYLEMNSLRAEDTAVYYCARDHDFRSGYEGWFDPWGQGTLVTVSS
VL: EIVLTQSPATLSLSPGERATLSCRASQSVSSYLAWYQQKPGQAPRLLIYDASNRATGIPARFSGSGSGTDFTLTISSLEPEDFAVYYCQHRSNWPPTFGGGTKVEIK
TGD [1]: 8 days
TGD [2]: 9 days
AUC ([3]; 0.25 mg/kg IV, n = 7 patients): 489 µg·h/mL
AUClast ([3]; 0.25 mg/kg IV, n = 7 patients): 452 µg·h/mL
AUC ([3]; 0.5 mg/kg IV, n = 2 patients): 963 µg·h/mL
AUClast ([3]; 0.5 mg/kg IV, n = 2 patients): 759 µg·h/mL
TGD [4]: 6 days
